19 sequences from the DeepSol protein solubility set can be followed below.

This series is described as follows: soluble on expression in E. coli; label from the status in PepcDB or PDB records.
“MGETAGREHGTVTRSAEYIGSFPVDDSCLDDQIQQLHTQLKSLKNCKSKRTVSLRFSVKGVKVYDEDETTLLMAHAMCRVSLSTARPSDAQFAFASHNPGNSDAQLYCHLFRARHARAAQFLNLLLCRCFQLYFLEKHPEEAQEECSGKKPSRAPSLLNQGFPLSVSALVSFRRAPTQGLLPGAKLFSQQSTEQVSSPEEGPTSSPTIVRKMAIRTKELRSGAYRSFTFTPLKQRHLQDKLSAPQGGMSVHRTLSRLKEFLRKGTSHCKGMHVSSSQFGRNRRSTGSSCVVLGWRV”: the “soluble on expression in E. coli” value was “not soluble”.

Take “MGSDKIHHHHHHMTDPFFLSDSGLLESYRAPKWLPGGNAQTIFPYFINLSPIISYRRERWEMDDGDFIDIDWLDGESDKPLVIMLHGLEGSSQSHYALSLMNLLQMLRWRGAVVHFRGCSGYSNRLPRAYHAGDSMEIDRMLRHIAHRNDSHEWNTPCYVVGVSLGGNALLKWLGEQGAQAARQIAGVVAVSVPLDLAAAGKVLDSGFNRVYTHHFLTTLKRKALEKNRQFPGLLNARAVAACRSLYEFDNLVTAPLHGFRDTDDYWRQSSSKPWLGSVQVPTLLINARNDPFLPESVLPQKSEVSSFVSLEFPQQGGHVGFIQGTFPGKLDWLPQRIIEFFSSLCGLDAIPG”: the “soluble on expression in E. coli” value is recorded as “not soluble”.

In the case of “SGKGGWLLNFLNHAKNQESVENLDKNGAVKAPSSGFKMPLHYPRYTKEDYEEMEEWRLDLLLSEYGLLAFHDNTLHEKRAFAIDTFIWPHHP”, the “soluble on expression in E. coli” value is “soluble”.

As to “MSQRVSYYEIAPEGMKIMMDMEKYTKQSSINRTTRELIKIRVSQMNGCAFCIDMHTSDARKMGETEQRIYCLHAWNECDFYSPEEKAALELSEHITLIPSKRVPDELYHRVREHYDEEQYVDLVLIINQINSWNRISIAMGNRAASK”, the “soluble on expression in E. coli” value is recorded as “soluble”.

Turning to “MGSDKIHHHHHHMRVLVTGANGFVGSRLAGQLGRSDHFSLACAVRTTGTCRFGEEYSIGELGPKTDWSAALRGQDVVVHLAARAHVMDDEAPDPLVEYRRVNVDGTLNLARQAIDAGVRRFVFVSSIKVNGEQTDLGQPFTSDQITAPADAYGISKLEAERGLLALGKESGMEVVIIRPPLVYGPGVKGNFATLIKLVEKGFPLPLGAISNKRTLVSLDNLVDLIQVCIDHPAAANEVFLAGDNSDLSTSELLREIGKAVGKPARLIPVPQGFLMVAARLLGKTDVARRLFGSLQVDISKARHLLGWEPPVSVEEGLRRCFELESRS”, the “soluble on expression in E. coli” value is given as “not soluble”.

Turning to “MASSGDYDEIIKSISDAPPTHYMVKIESFSLLTKHAIERYETESFEAGGYKWKLVLYPNGNKSKNTKDHVSVYLSLADSSSLSPGWEVYAVFRLYLLDQNKDNYLILQGNERRFHSVKREWGFDKFIPTGTFSDASNGYLMEDTCMFGADVFVSKERRSGRGECLSMIKDATSSKHVWKIENFSKLDKESYDSNAFFAGDRKWKIEFYPTGTKQGTGTHLSIYLTLVDPETISDGTKIFVEFTIRIFDQLQGRHIAGKVTKWFSRSSSEHGWVKYVSMVYFTQPNSGLLLKDVCLVEADVCVHGITSAI”, the “soluble on expression in E. coli” value is “soluble”.

For “MGVLLREALRSMCVNNQWSYAVFWKIGCQNSSLLIWEECYNETESSSNPRRLCGLGVDTQGNEKVQLLTNRMMLNNRIILVGEGLVGRAAFTGHHQWILANSFNRDVHPPEVINEMLLQFSAGIQTVAVFPVVPHGVVQLGSSLPIMENLGFVNDVKGLILQLGCVPGALLSENYRTYEPAADFIGVPVSRIIPSQGHKILQSSAFVAETSKQHFNSTGSSDHQMVEESPCNLVDEHEGGWQSTTGFLTAGEVAVPSNPDAWLNQNFSCMSNVDAAEQQQIPCEDISSKRSLGSDDLFDMLGLDDKNKGCDNSWGVSQMRTEVLTRELSDFRIIQEMDPEFGSSGYELSGTDHLLDAVVSGACSSTKQISDETSESCKTTLTKVSNSSVTTPSHSSPQGSQLFEKKHGQPLGPSSVYGSQISSWVEQAHSLKREGSPRMVNKNETAKPANNRKRLKPGENPRPRPKDRQMIQDRVKELREIIPNGAKCSIDALLERTIKHMLFLQNVSKHSDKLKQTGESKIMKEDGGGATWAFEVGSKSMVCPIVVEDINPPRIFQVEMLCEQRGFFLEIADWIRSLGLTILKGVIETRVDKIWARFTVEASRDVTRMEIFMQLVNILEQTMKCGGNSKTILDGIKATMPLPVTGGCSM”, the “soluble on expression in E. coli” value is reported as “not soluble”.

Turning to “MGSDKIHHHHHHMDIYRHAQVMMNAAQAAHDLVDHLSIQPRGVVKVSVPVDIAQNLLPKILPAFLKKYPEIRLQLIVSNRRVDVINEGIDIALRVRSKLDDDPSLVLRQFALIEQSLFASQAYLNEFGNIKSPDELSDHRILSLSEEHLDQQFILHGPDNQLKKVKVSPTIMGTNIYMLAQLASQNCGIALLPDTAAEDFVKSGQLVQILPDWKAAHGIFHAVYPSRRGLLPAVRVFIDYLVEHLSEHP”, the “soluble on expression in E. coli” value was “not soluble”.

Regarding “MSLVLSAGRLNKNSLGIAVLLCTGLLLAGCSSNSGSGTYSGSVYTVKRGDTLYRISRATGTSVKELARLNGISPPYTIEVGQRIKVRGSAKSSTSTRKTSNKTATKTAAVRPSSSVPKSSWPPVGQRCWVWPANGKVILPYSTAEGGNKGIDIAGARGTPVYAAGAGKVVYVGNQLRGYGNLIMIKHNEDYITAYAHNDTMLVNNGQSVKAGQKIATMGSTDAASVRLHFQIRYRATAIDPLRYLPPQGSKPKCEGHHHHHH”, the “soluble on expression in E. coli” value is “not soluble”.

In the case of “MSLATTHLDVCAVVPAAGFGRRMQTECPKQYLSIGNQTILEHSVHALLAHPRVKRVVIAISPGDSRFAQLPLANHPQITVVDGGDERADSVLAGLKAAGDAQWVLVHDAARPCLHQDDLARLLALSETSRTGGILAAPVRDTMKRAEPGKNAIAHTVDRNGLWHALTPQFFPRELLHDCLTRALNEGATITDEASALEYCGFHPQLVEGRADNIKVTRPEDLALAEFYLTRTIHQENT”, the “soluble on expression in E. coli” value is “soluble”.

On to “MGQTVNEDSMDVKKENQEKTPQSSTSSVQRDDFHWEEYLKETGSISAPSECFRQSQIPPVNDFKVGMKLEARDPRNATSVCIATVIGITGARLRLRLDGSDNRNDFWRLVDSPDIQPVGTCEKEGDLLQPPLGYQMNTSSWPMFLLKTLNGSEMASATLFKKEPPKPPLNNFKVGMKLEAIDKKNPYLICPATIGDVKGDEVHITFDGWSGAFDYWCKYDSRDIFPAGWCRLTGDVLQPPGTS”, for which the “soluble on expression in E. coli” value is recorded as “soluble”.

In the case of “MHTMHIPSGDVLIPKPKLITEETDPLHIIKTRQKTHGRPVTIAGPMVRYSKLPFRQLCREYNVDIVYSPMILAREYVRNEHARISDLSTNNEDTPLIVQVGVNNVADLLKFVEMVAPYCDGIGINCGCPIKEQIREGIGCALIYNSDLLCSMVHAVKDKYGDKLRIETKIRIHEALDETVELCRKLCDAGVDWITIHGRTRRTRSSQPANLDAIKYIIENISDKNVPVIANGDCFKLSDLERITKYTGAHGVMAVRGLLSNPALFAGYTTCPWGCIEKFCYWALEFGGLPFQLAQHHLYCMLENMELKKSLLKKMMNLKNYISLIDWFNKTFEFKRYGEDGFGMGVEIPYKANSCVQRSASVVERQE”, the “soluble on expression in E. coli” value was “soluble”.

In the case of “AKDWKWNLNWNGALNKNKVVSLPDNGLERNRQSAYQVYTGNGDEKKWVGGYQEGQRPGDLYMFVAEGLYKSQDEIPANLIDLTTGNNGSSGRPLYGGAEGYNKLTDSQKSNALPIQPGDVKWKDVNNDGVIDNYDMVKVGNTVPKWTGGINTTVSWKDLTLSARFDYALGFTAVDWKTMWIMSCAQGTYNTIEETKNTWTPENPNAKYPTYVWADQLGKRNYCRSSSMFAYNGNYIALRELSLSYKLPSILVQKAKLSNVELSITGQNLGYLTEAKHLFSPEKADNNGGYPLPRTVIFGINVSF”, the “soluble on expression in E. coli” value is given as “not soluble”.

“MSNEQLADLTQPQRDRLAFVELRVRFIGEIRRQDLVTRFGIQSAAASRDLALYKELAPGNIDYDSKGKSYVLGPDFRPVFDFPPERVLSWLTQGFGDGEPMRLKAWVASESPSRLTHPDLDVLASVTRAIHQECPLGIEYHSISSGRTEREIVPFALIDNGLRWHVRAFDRKSQEFRDFVITRIKRPVLIRDAEVQSHERSDQDIQWTRIVELEMVPHPDQPRPEITEMDYGMVRGSLRMKLRAATAGYILRQWSVDCSPDHSLRGYEFRLWLKDHLALYGVKNAVLAPGYRSPDQNKGEQ”: the “soluble on expression in E. coli” value was “soluble”.

Regarding “MGSDKIHHHHHHMMNERIKQRRKELGLTQPSIAKTIGLTKATISLWESGSTSPKGENLHALAKALRCAPEFLLFGNDSIKPEPNAEWAGGFETWGSNSPLGDDEVEIPFYMEVELAAGDGIIDCREYQGPKLRFAKSTLKRQGVTSDHAACVKVNGNSMEPVLPNGSTVGVDTAHTDIVDGKMYAINHDGMLRVKMLYKLPGGGLRLRSYNLDEYPDERLDAEELKQVKVIGKVFWYSVLV”, the “soluble on expression in E. coli” value is reported as “not soluble”.

With “MGSDKIHHHHHHMPQDVMTANHVSPSNDAAAPSALDLARNQRLSLMDLLSVSEALNAAGQQAAAAELYKTWVAFNDNNPTIHLAYFNYAVMLNQLGDRAGAVQAFRACLKANPEFAPGHINLGRALEDAGLIGHAVEQWSHYAEVTKNVDAETIGHRHMTLQNMGRVLEGAGKLEEAETALLQAFELRPELPEAGQHWASLRQRQCKWPVLAPSNHISPRKMLDAMSSLTLSCYADDPMFQLAKAYRLSKTLIGARPDLSRFPRRSPKQKSGTGQRLRVGYLSSDLRDHAVGFALCEVLELHDKDSLEVFAYYCGNVRGTDSTQERIKAAVHCWRDIHGVDDATAASQIIADEIDILIDVNGYTKDARAKIFAYRPAPVIVSFCGYPGSMGSPFHQYLISDGYMIPPENEIYYSEKVLRIACDQPLDRKRPVAARPSRADVGLPEDAFVYASFNGMQKITENCFARWMTILSETPGSLLWLLTGDDDVNQRLRDLAEKSGVASERLVFAPKAQNPQHIARIGLADLFLDTFPYGAHSTASDAITSGLPVLTMYGKTFAARFCGSIVTAAGVPEMICSSPEDYVARAIGFERDRQSLLEVRESIARQRETSVLRDIPALARRLEELFWQMQGECERGETPVPDLSNLDIYYEAGAEALLENIEFEDEQSYRERYLKKLRQWHDYAPIPYDRRLWQNPDN”, the “soluble on expression in E. coli” value is “not soluble”.

Turning to “MQQIFFKDPILGEVLFDQQTKWMYELVETEAFRRLRNIKQLGINFHFYPGGVHTRYSHSLGVYELLRRILNTPAFAPIDENKKQTVLVAGLLHDIGHAPHSHAFEIYFAKAPNFKKELFIHEEVTTLFVNSEPIKSILKANQIDPKLVAALIDENKELKPSNYWMRQLISSDLDADRMDYLLRDSYFTGTSHSLIDYQTIIKEMDCVKVKGIYEIFFKDKCLPLIENFLITRHHMYQSIYSDGRSISTELNLWFVFQRIKDLVDKNQFDFNGYKTLEQVCLPLLKNEHFDKKMLPAFVKLDDYVFQSFFVNLYQTTKDKILKKLLDSYLNSLKFEIKFYETKEQRDLDFEKQASKYKDAKYFITKFNNQFKGFYEGWSSHKNELKIKTMQNKHTNLSEISMLVKRSNELFFENALYKWANVFYRL”, the “soluble on expression in E. coli” value was “soluble”.

With “MNGGGKNVLNKNSVGSVSEVGPDSTQEETPRDVRLLHLLLASQSIHQYEDQVPLQLMDFAHRYTQGVLKDALVYNDYAGSGNSAGSGLGVEDIRLAIAARTQYQFKPTAPKELMLQLAAERNKKALPQVMGTWGVRLPPEKYCLTAKEWDLEDPKSM”, the “soluble on expression in E. coli” value was “not soluble”.

On to “MDNELTSRPDSIMDTEPTTLPDSAMDTKPTNLPDFPSTSQEPVSRRTRSRTLSDNSNAVWKRERRSRETSQESESRLRMDWERKKEKRASMSEEEKAEMKYKKRVWMKKKRNEVAKTHDTSSVANPNYLGSMRCVCKNCNARFFQGIHFFKV”, for which the “soluble on expression in E. coli” value is recorded as “not soluble”.
